A short description of data set [1]: Leaching test: leakage (membrane disruptive function). Type of data set: biochemical. Particulars: sample not acid-aggregated.
Method: Herein, the term “membrane disruptive function” means a function of causing leakage in a leaching test. Herein, the leaching test in the present specification is a test in which liposomes (dispersion) including an aqueous solution containing a quenching substance and a fluorescent substance, and an evaluation sample dispersion such as a solution containing a complex (aggregate of a pH sensitive carrier supporting a physiologically active substance) are added to an aqueous solution whose pH is adjusted to a predetermined level, followed by incubating the aqueous solution at 37° C. for 90 minutes or 30 minutes and measuring the fluorescence of the aqueous solution. According to this method, an amount of a fluorescent substance leached out from the liposomes can be measured, from which the liposome membrane disruptive function of the complex can be confirmed.
Herein, the expression “to develop a membrane disruptive function promoting effect” means to satisfy both of requirements (1) and (2): (1) in the leaching test, a leakage at a predetermined pH that is less than a physiological pH increases compared to a leakage at the physiological pH and the amount of increase is larger than the amount of increase in a case where the pH sensitive compound alone is subjected to the test; and (2) in the leaching test at a predetermined pH less than the physiological pH, a leakage of the complex is more than the sum of a leakage of the pH sensitive compound alone and a leakage of the amphipathic substance alone. More specifically, to develop a membrane disruptive function promoting effect means that, in the leaching test at a pH of 7.4 and at a pH of 5.0 or 4.5, a leakage Lc of the complex, a leakage La of the pH sensitive compound alone, and a leakage Lb of the amphipathic substance alone satisfy both the following relations. That is, the above (1) is represented by the following Formula (1) and the above (2) is represented by the following Formula (2). […]
3,000 nmol of EYPC (egg yolk phosphatidylcholine) dissolved in chloroform was measured and introduced into a 10-mL pear-shaped flask, and a thin film was produced using a rotary evaporator (BuCHI). […]
Meanwhile, the case of an EYPC liposome dispersion liquid only was designated as 0%, the value obtained in a case in which 30 μL of Triton-X100 diluted to ten time was added was designated as 100%, and the leakage was calculated.
Specifically, the leakage was calculated according to the following formula 4. In the following formula, the fluorescence intensity thus measured was designated as L, the fluorescence intensity of only the EYPC liposome dispersion liquid encapsulating a fluorescent substance was designated as L0, and the fluorescence intensity in the case of having Triton-X100 added thereto was designated as L100.
Data set [2] in a line: Integration of peptide with pH sensitive carrier: absorbance at 750 nm (Lowry kit), 0.22-μm filtration. Format: physicochemical. The settings on record: for peptide-derived absorbance: mixed liquid with the pH sensitive carrier at a neutral pH; for absorbance of the solution after filtration: pH lowered to obtain an aggregate of the pH sensitive carrier. Here is the method: (§1) When a liquid including the complex obtained as described above is treated with a filter (for example, having a pore size of 0.22 μm), and the concentrations of the physiologically active substance before and after a filtration treatment are measured, the integration ratio of the physiologically active substance (proportion of the amount of the physiologically active substance incorporated into an aggregate of the pH sensitive carrier with respect to the total amount of the physiologically active substance added) can be checked. Here, the concentration of the physiologically active substance can be measured by any known method. Meanwhile, in the present specification, the integration efficiency of the physiologically active substance is defined as a value calculated by the following formula 3 based on the measurement of the absorbance before and after a filtration treatment. At this time, the absorbance may be measured at a wavelength corresponding to the absorption wavelength range of the physiologically active substance (for example, 280 nm in the case of a protein or a peptide, and 260 nm in the case of a nucleic acid). Alternatively, the liquid is colored using a commercially available quantification kit, and then the absorbance may be measured at a wavelength that is recommended by the protocol of the kit.
(§2) Integration efficiency of physiologically active substance (%)=[(Absorbance before filtration treatment−Absorbance after filtration treatment)/(Absorbance before filtration treatment)]×100 (Formula 3)
[…] and […] were used as peptides, and the concentration of the peptide was adjusted to 0.8 mg/mL. […] The pH at the time of preparing an aggregate of the pH sensitive carrier was adjusted to 4 using 1 N sulfuric acid. The time for standing was set to 2 hours. The mixed liquid was passed through a 0.22-μm filter, the liquid before and after filtration was colored using a peptide quantification kit (Lowry kit, manufactured by NACALAI TESQUE, INC.), and measurement of the absorbance at a wavelength of 750 nm was carried out.

The nature of data set [3]: Integration of OVA with pH sensitive carrier: absorbance at 595 nm (CBB) before and after 0.22-μm filtration. Format: physicochemical. Particulars: for integration efficiency for OVA based on the change in the absorbance: DLPC 1,000 nmol in 1 mL. As for the experimental part: as §1, §2
2. Next, separation of the protein was checked. PBS at pH 7.4 containing OVA was passed through a 0.22-μm filter similarly to the previous operation. The liquid before and after the filtration treatment was colored using a protein quantification kit (protein assay CBB solution, manufactured by NACALAI TESQUE, INC.), and measurement of the absorbance at a wavelength of 595 nm was performed. […] Meanwhile, the absorbance was converted to concentration using a calibration curve, and while the OVA concentration before filtration was 0.81 mg/mL, the OVA concentration after filtration was 0.79 mg/mL. The concentrations thus obtained were consistent with the feed concentration (FIG. 3B). It was confirmed that free OVA all escaped without being captured by the filtration. Therefore, it was considered that integration of the aggregate of the pH sensitive carrier and the protein can be evaluated by measuring the protein concentrations before and after passage through a filter (pore diameter 0.22 μm).
OVA was mixed with a dispersion liquid of the pH sensitive carrier, and a mixed liquid was prepared. Subsequently, the mixed liquid was passed through a filter by a test method similar to section 2. of Experiment 2, and the change in the absorbance (corresponding to the OVA concentration) before and after a filtration treatment was investigated. […]

Where [4] appears, read: aggregate of DLPC-deoxycholic acid carrier, pH 4, 2 hours.
Setting [5] is: OVA 0.8 mg/mL, 1,000 nmol amphiphilic substance and 1,600 nmol pH sensitive compound in 1 mL, pH 4, 1 hour, listed as OVA only.
Where [6] appears, read: PBS at pH 7.4, no carrier, from calibration curve.

“And” between values parts separate entries of the source, which are not always exact repeats. Equal entries are not always repeated.

Take `CCCCCCCCCCCC(=O)OC[C@H](COP(=O)([O-])OCC[N+](C)(C)C)OC(=O)CCCCCCCCCCC` [DLPC alone, 1,2-dilauroyl-sn-glycero-3-phosphatidylcholine]: the Leakage in data set [1] (leaching test at pH 5.0) is 2.587% and 4.587%; in data set [1] (leaching test at pH 7.4), 1.188% and 2.688%.

Consider RGPESRLL, for which, in data set [2] (RGPESRLL), the peptide-derived absorbance was 1.40 and the “absorbance of the solution after filtration” value amounted to 0.82. In addition, the “integration efficiency of the RGPESRLL peptide based on the change in absorbance” value in data set [2] (setting [4]) is recorded as “about 41%”.

For the molecule SIINFEKL, the “integration efficiency of the SIINFEKL peptide based on the change in absorbance” value in data set [2] (setting [4]) is “about 27%”. For the same molecule, in data set [2], the peptide-derived absorbance was 0.44 and the “absorbance of the solution after filtration” value is 0.32.

B1: OVA: Model protein: OVA (molecular weight 45 kDa, manufactured by Sigma-Aldrich Corp.) (protein, UniProt P01012 2-386, looked up)
Ovalbumin: GSIGAASMEFCFDVFKELKVHHANENIFYCPIAIMSALAMVYLGAKDSTRTQINKVVRFDKLPGFGDSIEAQCGTSVNVHSSLRDILNQITKPNDVYSFSLASRLYAEERYPILPEYLQCVKELYRGGLEPINFQTAADQARELINSWVESQTNGIIRNVLQPSSVDSQTAMVLVNAIVFKGLWEKAFKDEDTQAMPFRVTEQESKPVQMMYQIGLFRVASMASEKMKILELPFASGTMSMLVLLPDEVSGLEQLESIINFEKLTEWTSSNVMEERKIKVYLPRMKMEEKYNLTSVLMAMGITDVFSSSANLSGISSAESLKISQAVHAAHAEINEAGREVVGSAEAGVDAASVSEEFRADHPFLFCIKHIATNAVLFFGRCVSP
As for B1, in data set [3] (setting [5]), the “Absorbance after filtration (corresponding to the OVA concentration)” value was 0.651 and 0.533; the “Absorbance before filtration (corresponding to the OVA concentration)” value is 0.661 and 0.588. Moreover, in data set [3] (setting [6]), the “OVA concentration after filtration” value is 0.79 mg/mL and the “OVA concentration before filtration” value stood at 0.81 mg/mL. Besides, in data set [3] (PBS at pH 7.4 containing OVA, no carrier), the “Absorbance at 595 nm before filtration” value is 0.616. In addition, the “Absorbance at 595 nm after filtration” value in data set [3] (PBS at pH 7.4 containing OVA, no carrier, 0.22-μm filter) amounted to 0.601. In addition, the “integration efficiency for OVA based on the change in the absorbance” value in data set [3] (carrier with deoxycholic acid 400 nmol/mL, pH 4) is “about 42%”. In data set [3] (carrier with deoxycholic acid 1,600 nmol/mL, pH 4), the “integration efficiency for OVA based on the change in the absorbance” value is reported as “about 60%”. The “integration efficiency for OVA based on the change in the absorbance” value in data set [3] (carrier with deoxycholic acid 6,400 nmol/mL, pH 4) is given as “about 64%”.

The record behind these values is patent US20210145750A1, “COMPLEX, pH SENSITIVE COMPOSITION INCLUDING COMPLEX, AND METHOD FOR PRODUCING COMPLEX” (TERUMO KABUSHIKI KAISHA, priority 2017, published 2021).
